Patent publication US7063845 (KIRIN BEER, dated 2006)

Target: T1, human CD40 on the cell surface (EL-4 cells transfected with full length human CD40 cDNA); Ramos B cells; human … (human, UniProt P25942 21-277)
T1 construct: whole, on cells; Ramos and peripheral B cells carry their own CD40; also called cell surface human CD40
Assay: FACS on EL-4 cells expressing human CD40

T1 sequence (P25942 21-277): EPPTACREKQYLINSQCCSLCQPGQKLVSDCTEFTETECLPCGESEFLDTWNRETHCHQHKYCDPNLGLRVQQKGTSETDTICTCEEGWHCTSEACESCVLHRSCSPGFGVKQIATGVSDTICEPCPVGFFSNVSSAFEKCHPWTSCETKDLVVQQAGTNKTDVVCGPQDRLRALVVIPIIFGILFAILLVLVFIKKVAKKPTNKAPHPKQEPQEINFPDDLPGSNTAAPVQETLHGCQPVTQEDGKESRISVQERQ

B1: recombinant human anti-CD40 antibody F5-77 (antibody, V domains shown)
VH: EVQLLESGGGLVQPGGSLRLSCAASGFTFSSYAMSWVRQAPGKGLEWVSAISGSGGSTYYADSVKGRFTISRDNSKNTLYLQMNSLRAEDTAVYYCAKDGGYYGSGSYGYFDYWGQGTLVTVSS
VL: DIQMTQSPSSVSGSVGDRVTITCRASQGISSWLAWYQQKPGKAPKLLIYAGSSLQSGVPSRFSGSGFGTDFTLTISSLQPEDFATYYCQQASSFPRTFGQGTKVEIK
notes: also called F5-77 (K1H1); printed F5-17 in claim 19
B1: binds.
